Reference: the supplement of paper PMC9233669
Variants at the floor of the assay were thinned out.

Assays:
biotinyl-Phe-oxazolone = test: self-aminoacylation, catalytic enhancement (BFO) (fold over background); higher = more active; k-Seq, kA / k0A0; sequences stand for … in GGGAAUGGAUCCACAUCUACGAAUUC…UUCACUGCAGACUUGACGAAGCUG
How it was run: (§1)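 Mutagenized RNA pools with a 21-nt variable region (0.43 μM) were reacted with each biotinyl-aminoacyl-oxazolone at 2–1250 μM for 90 minutes at room temperature, in 50 μL HEPES/NaCl/KCl/MgCl2/CaCl2 buffer containing 5% acetonitrile at pH 6.9–7.0. RNA captured on streptavidin was quantified by triplicate qPCR and by Illumina sequencing. The fraction reacted for each sequence was fit to a pseudo-first-order model with bootstrapping, and catalytic enhancement is the median kA divided by the uncatalyzed rate, taken as the low-activity peak of a bimodal Gaussian fit.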

biotinyl-Ile-oxazolone = test: self-aminoacylation, catalytic enhancement (BIO) (fold over background); higher = more active; k-Seq, kA / k0A0; sequences stand for … in GGGAAUGGAUCCACAUCUACGAAUUC…UUCACUGCAGACUUGACGAAGCUG
How it was run: as §1

biotinyl-Met-oxazolone = test: self-aminoacylation, catalytic enhancement (BMO) (fold over background); higher = more active; k-Seq, kA / k0A0; sequences stand for … in GGGAAUGGAUCCACAUCUACGAAUUC…UUCACUGCAGACUUGACGAAGCUG
How it was run: as §1

biotinyl-Val-oxazolone = test: self-aminoacylation, catalytic enhancement (BVO) (fold over background); higher = more active; k-Seq, kA / k0A0; sequences stand for … in GGGAAUGGAUCCACAUCUACGAAUUC…UUCACUGCAGACUUGACGAAGCUG
How it was run: as §1

biotinyl-Leu-oxazolone = test: self-aminoacylation, catalytic enhancement (BLO) (fold over background); higher = more active; k-Seq, kA / k0A0; sequences stand for … in GGGAAUGGAUCCACAUCUACGAAUUC…UUCACUGCAGACUUGACGAAGCUG
How it was run: as §1

biotinyl-Trp-oxazolone = test: self-aminoacylation, catalytic enhancement (BWO) (fold over background); higher = more active; k-Seq, kA / k0A0; sequences stand for … in GGGAAUGGAUCCACAUCUACGAAUUC…UUCACUGCAGACUUGACGAAGCUG
How it was run: as §1

Sequence	self-aminoacylation (biotinyl-Phe-oxazolone)	self-aminoacylation (biotinyl-Ile-oxazolone)	self-aminoacylation (biotinyl-Met-oxazolone)	self-aminoacylation (biotinyl-Val-oxazolone)	self-aminoacylation (biotinyl-Leu-oxazolone)	self-aminoacylation (biotinyl-Trp-oxazolone)
CCACACUUCAAGCGCUCGGUC [Fam1B.1 aminoacylation ribozyme variant]	3.37	1.04	0.81	1.09	1.21	1.41
CCACACUUCAAGCUAGCGGUC [Fam1B.1 aminoacylation ribozyme variant]	0.856	0.921	0.714	0.911	0.984	0.75
CCACACUUCAAGCUAUCCGUC [Fam1B.1 aminoacylation ribozyme variant]	0.797	1.04	0.761	1.27	0.736	1.13
CCACACUUCAAGCUAUCGUUC [Fam1B.1 aminoacylation ribozyme variant]	0.96	0.677	0.542	0.908	0.574	0.521
CCACACUUCAAGCUAUCUGUC [Fam1B.1 aminoacylation ribozyme variant]	0.636	0.468	0.284	0.612	0.362	0.371
CCACACUUCAAGGAACCGGUC [Fam1B.1 aminoacylation ribozyme variant]	1.2	1.04	1.04	0.945	0.984	0.809
CCACACUUCAAGGAAUCAGUC [Fam1B.1 aminoacylation ribozyme variant]	2.49	0.668	0.614	0.757	0.62	1.08
CCACACUUCAAGGAAUCCGUC [Fam1B.1 aminoacylation ribozyme variant]	0.963	1.24	1.65	1.14	1.08	1.07
CCACACUUCAAGGAUUCGGUC [Fam1B.1 aminoacylation ribozyme variant]	0.958	1.85	1.83	2.02	2.02	1.96
CCACACUUCAAGGCAUCGGUC [Fam1B.1 aminoacylation ribozyme variant]	1.18	1.03	1.02	1.32	1.18	1.16
CCACACUUCAAGUAAUCAGUC [Fam1B.1 aminoacylation ribozyme variant]	4.86	0.686	0.586	0.723	0.635	1.72
CCACACUUCAAGUAAUCGGAC [Fam1B.1 aminoacylation ribozyme variant]	0.783	0.743	0.826	0.907	0.696	1.05
CCACACUUCAAUCACUCGGUC [Fam1B.1 aminoacylation ribozyme variant]	0.947	0.936	0.763	0.984	0.773	0.753
